Consider five molecules from patent publication US20200024322A1 (Eli Lilly, published 2020).

Numbered stars: 1 amine (or outer) side, 2 acyl side, 3 side chain; on linkers, the order of the positions; unused ones are H or OH. Square brackets hold non-standard residues; d marks the D form. Side chains are listed from the residue outwards. Ends that are not written are not given here. * marks the point of attachment. C20 diacid = O=C(O)CCCCCCCCCCCCCCCCCCC(=O)*; γGlu = O=C(O)[C@H](CCC(=O)[*:2])N[*:1]; AEEA = NCCOCCOCC(=O)O; Aib = CC(C)(N)C(=O)O

Sequences and labels used below:
T1: human GIP receptor (human, UniProt P48546 22-466)
T1 construct: whole, on cells; Used as crude membranes of stably transfected CHO cells; also called hGIPR
T1 sequence (looked up): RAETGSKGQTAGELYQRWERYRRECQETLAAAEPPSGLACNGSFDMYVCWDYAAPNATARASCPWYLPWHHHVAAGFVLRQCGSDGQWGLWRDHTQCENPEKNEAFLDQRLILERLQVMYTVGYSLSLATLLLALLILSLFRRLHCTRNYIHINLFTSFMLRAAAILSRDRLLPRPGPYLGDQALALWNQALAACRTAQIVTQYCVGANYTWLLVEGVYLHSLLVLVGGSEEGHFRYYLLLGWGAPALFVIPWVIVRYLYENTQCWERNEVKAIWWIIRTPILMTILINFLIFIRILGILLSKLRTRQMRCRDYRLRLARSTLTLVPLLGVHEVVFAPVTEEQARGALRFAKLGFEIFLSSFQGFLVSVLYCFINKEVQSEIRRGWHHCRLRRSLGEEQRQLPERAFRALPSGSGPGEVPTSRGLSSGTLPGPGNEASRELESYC

B1: Example 24 (peptide)
peptide: Y[Aib]EGTFTSDYK([AEEA-AEEA-γGlu-C20 diacid])ILLDKIAQ[Aib]AFIEYLIEGGPSSGAPPPS-NH2
modifications: N-terminus assumed
SMILES: CC[C@H](C)[C@H](NC(=O)[C@H](CCCCN)NC(=O)[C@H](CC(=O)O)NC(=O)[C@H](CC(C)C)NC(=O)[C@H](CC(C)C)NC(=O)[C@@H](NC(=O)[C@H](CCCCNC(=O)COCCOCCNC(=O)COCCOCCNC(=O)CC[C@H](NC(=O)CCCCCCCCCCCCCCCCCCC(=O)O)C(=O)O)NC(=O)[C@H](Cc1ccc(O)cc1)NC(=O)[C@H](CC(=O)O)NC(=O)[C@H](CO)NC(=O)[C@@H](NC(=O)[C@H](Cc1ccccc1)NC(=O)[C@@H](NC(=O)CNC(=O)[C@H](CCC(=O)O)NC(=O)C(C)(C)NC(=O)[C@@H](N)Cc1ccc(O)cc1)[C@@H](C)O)[C@@H](C)O)[C@@H](C)CC)C(=O)N[C@@H](C)C(=O)N[C@@H](CCC(N)=O)C(=O)NC(C)(C)C(=O)N[C@@H](C)C(=O)N[C@@H](Cc1ccccc1)C(=O)N[C@H](C(=O)N[C@@H](CCC(=O)O)C(=O)N[C@@H](Cc1ccc(O)cc1)C(=O)N[C@@H](CC(C)C)C(=O)N[C@H](C(=O)N[C@@H](CCC(=O)O)C(=O)NCC(=O)NCC(=O)N1CCC[C@H]1C(=O)N[C@@H](CO)C(=O)N[C@@H](CO)C(=O)NCC(=O)N[C@@H](C)C(=O)N1CCC[C@H]1C(=O)N1CCC[C@H]1C(=O)N1CCC[C@H]1C(=O)N[C@@H](CO)C(N)=O)[C@@H](C)CC)[C@@H](C)CC
B2: Example 31 (peptide)
peptide: Y[Aib]EGTFTSDYSILLDKIAK([AEEA-AEEA-γGlu-C20 diacid])[Aib]AFIEYLIEGGPSSGAPPPS-NH2
modifications: N-terminus assumed
SMILES: CC[C@H](C)[C@H](NC(=O)[C@H](CCCCN)NC(=O)[C@H](CC(=O)O)NC(=O)[C@H](CC(C)C)NC(=O)[C@H](CC(C)C)NC(=O)[C@@H](NC(=O)[C@H](CO)NC(=O)[C@H](Cc1ccc(O)cc1)NC(=O)[C@H](CC(=O)O)NC(=O)[C@H](CO)NC(=O)[C@@H](NC(=O)[C@H](Cc1ccccc1)NC(=O)[C@@H](NC(=O)CNC(=O)[C@H](CCC(=O)O)NC(=O)C(C)(C)NC(=O)[C@@H](N)Cc1ccc(O)cc1)[C@@H](C)O)[C@@H](C)O)[C@@H](C)CC)C(=O)N[C@@H](C)C(=O)N[C@@H](CCCCNC(=O)COCCOCCNC(=O)COCCOCCNC(=O)CC[C@H](NC(=O)CCCCCCCCCCCCCCCCCCC(=O)O)C(=O)O)C(=O)NC(C)(C)C(=O)N[C@@H](C)C(=O)N[C@@H](Cc1ccccc1)C(=O)N[C@H](C(=O)N[C@@H](CCC(=O)O)C(=O)N[C@@H](Cc1ccc(O)cc1)C(=O)N[C@@H](CC(C)C)C(=O)N[C@H](C(=O)N[C@@H](CCC(=O)O)C(=O)NCC(=O)NCC(=O)N1CCC[C@H]1C(=O)N[C@@H](CO)C(=O)N[C@@H](CO)C(=O)NCC(=O)N[C@@H](C)C(=O)N1CCC[C@H]1C(=O)N1CCC[C@H]1C(=O)N1CCC[C@H]1C(=O)N[C@@H](CO)C(N)=O)[C@@H](C)CC)[C@@H](C)CC
B3: Example 27 (peptide)
peptide: Y[Aib]EGTFTSDYSILK([AEEA-AEEA-γGlu-C20 diacid])DKIAQ[Aib]AFIEYLIEGGPSSGAPPPS-NH2
modifications: N-terminus assumed
SMILES: CC[C@H](C)[C@H](NC(=O)[C@H](CCCCN)NC(=O)[C@H](CC(=O)O)NC(=O)[C@H](CCCCNC(=O)COCCOCCNC(=O)COCCOCCNC(=O)CC[C@H](NC(=O)CCCCCCCCCCCCCCCCCCC(=O)O)C(=O)O)NC(=O)[C@H](CC(C)C)NC(=O)[C@@H](NC(=O)[C@H](CO)NC(=O)[C@H](Cc1ccc(O)cc1)NC(=O)[C@H](CC(=O)O)NC(=O)[C@H](CO)NC(=O)[C@@H](NC(=O)[C@H](Cc1ccccc1)NC(=O)[C@@H](NC(=O)CNC(=O)[C@H](CCC(=O)O)NC(=O)C(C)(C)NC(=O)[C@@H](N)Cc1ccc(O)cc1)[C@@H](C)O)[C@@H](C)O)[C@@H](C)CC)C(=O)N[C@@H](C)C(=O)N[C@@H](CCC(N)=O)C(=O)NC(C)(C)C(=O)N[C@@H](C)C(=O)N[C@@H](Cc1ccccc1)C(=O)N[C@H](C(=O)N[C@@H](CCC(=O)O)C(=O)N[C@@H](Cc1ccc(O)cc1)C(=O)N[C@@H](CC(C)C)C(=O)N[C@H](C(=O)N[C@@H](CCC(=O)O)C(=O)NCC(=O)NCC(=O)N1CCC[C@H]1C(=O)N[C@@H](CO)C(=O)N[C@@H](CO)C(=O)NCC(=O)N[C@@H](C)C(=O)N1CCC[C@H]1C(=O)N1CCC[C@H]1C(=O)N1CCC[C@H]1C(=O)N[C@@H](CO)C(N)=O)[C@@H](C)CC)[C@@H](C)CC
B4: Example 25 (peptide)
peptide: Y[Aib]EGTFTSDYSK([AEEA-AEEA-γGlu-C20 diacid])LLDKIAQ[Aib]AFIEYLIEGGPSSGAPPPS-NH2
modifications: N-terminus assumed
SMILES: CC[C@H](C)[C@H](NC(=O)[C@H](CCCCN)NC(=O)[C@H](CC(=O)O)NC(=O)[C@H](CC(C)C)NC(=O)[C@H](CC(C)C)NC(=O)[C@H](CCCCNC(=O)COCCOCCNC(=O)COCCOCCNC(=O)CC[C@H](NC(=O)CCCCCCCCCCCCCCCCCCC(=O)O)C(=O)O)NC(=O)[C@H](CO)NC(=O)[C@H](Cc1ccc(O)cc1)NC(=O)[C@H](CC(=O)O)NC(=O)[C@H](CO)NC(=O)[C@@H](NC(=O)[C@H](Cc1ccccc1)NC(=O)[C@@H](NC(=O)CNC(=O)[C@H](CCC(=O)O)NC(=O)C(C)(C)NC(=O)[C@@H](N)Cc1ccc(O)cc1)[C@@H](C)O)[C@@H](C)O)C(=O)N[C@@H](C)C(=O)N[C@@H](CCC(N)=O)C(=O)NC(C)(C)C(=O)N[C@@H](C)C(=O)N[C@@H](Cc1ccccc1)C(=O)N[C@H](C(=O)N[C@@H](CCC(=O)O)C(=O)N[C@@H](Cc1ccc(O)cc1)C(=O)N[C@@H](CC(C)C)C(=O)N[C@H](C(=O)N[C@@H](CCC(=O)O)C(=O)NCC(=O)NCC(=O)N1CCC[C@H]1C(=O)N[C@@H](CO)C(=O)N[C@@H](CO)C(=O)NCC(=O)N[C@@H](C)C(=O)N1CCC[C@H]1C(=O)N1CCC[C@H]1C(=O)N1CCC[C@H]1C(=O)N[C@@H](CO)C(N)=O)[C@@H](C)CC)[C@@H](C)CC
B5: Example 30 (peptide)
peptide: Y[Aib]EGTFTSDYSILLDKIK([AEEA-AEEA-γGlu-C20 diacid])Q[Aib]AFIEYLIEGGPSSGAPPPS-NH2
modifications: N-terminus assumed
SMILES: CC[C@H](C)[C@H](NC(=O)[C@H](CC(C)C)NC(=O)[C@H](Cc1ccc(O)cc1)NC(=O)[C@H](CCC(=O)O)NC(=O)[C@@H](NC(=O)[C@H](Cc1ccccc1)NC(=O)[C@H](C)NC(=O)C(C)(C)NC(=O)[C@H](CCC(N)=O)NC(=O)[C@H](CCCCNC(=O)COCCOCCNC(=O)COCCOCCNC(=O)CC[C@H](NC(=O)CCCCCCCCCCCCCCCCCCC(=O)O)C(=O)O)NC(=O)[C@@H](NC(=O)[C@H](CCCCN)NC(=O)[C@H](CC(=O)O)NC(=O)[C@H](CC(C)C)NC(=O)[C@H](CC(C)C)NC(=O)[C@@H](NC(=O)[C@H](CO)NC(=O)[C@H](Cc1ccc(O)cc1)NC(=O)[C@H](CC(=O)O)NC(=O)[C@H](CO)NC(=O)[C@@H](NC(=O)[C@H](Cc1ccccc1)NC(=O)[C@@H](NC(=O)CNC(=O)[C@H](CCC(=O)O)NC(=O)C(C)(C)NC(=O)[C@@H](N)Cc1ccc(O)cc1)[C@@H](C)O)[C@@H](C)O)[C@@H](C)CC)[C@@H](C)CC)[C@@H](C)CC)C(=O)N[C@@H](CCC(=O)O)C(=O)NCC(=O)NCC(=O)N1CCC[C@H]1C(=O)N[C@@H](CO)C(=O)N[C@@H](CO)C(=O)NCC(=O)N[C@@H](C)C(=O)N1CCC[C@H]1C(=O)N1CCC[C@H]1C(=O)N1CCC[C@H]1C(=O)N[C@@H](CO)C(N)=O

The target of one assay is T1, human GIP receptor. Kind of assay: SPA, [125I]-GIP displacement, hGIPR membranes.
With B1, the Ki worked out at 0.232 nM.

Turning to B2, the inhibitory constant (Ki) came to 0.0275 nM.

As for B3, the inhibition constant Ki came out at 0.103 nM.

B4 came in with an inhibition constant Ki of 0.179 nM.

Take B5: the Ki was 0.151 nM.

In another assay the target is T2, human glucagon receptor (human, UniProt P47871 26-477).
T2 construct: whole, on cells; Used as crude membranes of stably transfected HEK293 cells; also called hGcgR; hGLcgR
T2 sequence (P47871 26-477): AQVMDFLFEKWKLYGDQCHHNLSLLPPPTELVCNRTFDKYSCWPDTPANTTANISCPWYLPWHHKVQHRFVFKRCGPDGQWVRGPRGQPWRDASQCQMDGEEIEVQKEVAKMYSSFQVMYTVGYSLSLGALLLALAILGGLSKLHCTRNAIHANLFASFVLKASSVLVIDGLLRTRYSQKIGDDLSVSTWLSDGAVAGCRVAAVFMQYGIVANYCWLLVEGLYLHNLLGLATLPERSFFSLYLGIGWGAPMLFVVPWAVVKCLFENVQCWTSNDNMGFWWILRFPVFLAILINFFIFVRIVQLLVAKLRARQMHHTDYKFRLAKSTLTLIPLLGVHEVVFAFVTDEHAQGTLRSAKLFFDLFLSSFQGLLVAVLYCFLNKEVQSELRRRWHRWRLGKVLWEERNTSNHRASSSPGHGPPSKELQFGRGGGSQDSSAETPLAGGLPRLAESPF
Description: SPA, [125I]-Gcg displacement, hGcgR membranes.
As to B1, the affinity corresponds to a Ki of 49.8 nM.

Regarding B2, affinity was put at a Ki of 290 nM.

Turning to B3, the inhibition constant (Ki) worked out at 315 nM.

B4 gave an inhibition constant (Ki) of 81.1 nM.

The molecule B5 had a Ki of 123 nM.

The next assay deals with T3, human GLP-1 receptor (human, UniProt P43220 24-463).
T3 construct: whole, on cells; Used as crude membranes of stably transfected HEK293 cells; also called hGLP1R; hGLP-1R
Kind of assay: SPA, [125I]-GLP-1 displacement, hGLP-1R membranes.
For B1, the Ki stood at 5.04 nM.

In the case of B2, the affinity corresponds to a Ki of 6.58 nM.

With B3, the inhibition constant (Ki) was 3.68 nM.

As for B4, affinity was put at a Ki of 4.8 nM.

Consider B5, for which the Ki is 6.2 nM.

The Ki is a dissociation constant, usually derived from enzyme kinetics or from competition with a known ligand.
